One data set relates to GFP. In words: FP. The note with it: negative control, little affinity.
The next data set concerns BamHI. The data set is described as follows: FP. The note with it: negative control, little affinity.

pKd: −log10 of the molar value.

As usually defined, the pKd is the Kd on a negative log10 scale, so that one unit is a factor of ten. A high value points to a small Kd. On to random-sequence RNA, for which the negative logarithm of the Kd (pKd) with GFP and in the data set with BamHI was under 5.40 each time.

The values above are taken from patent US20250283164.
